Experiments:
[1] = molecular target: T1, FcγRIIb (human, UniProt P31994 43-217); assay: SPR, relative to GpH7-A5/GpH7-B3/GpL16-k0
T1 construct: extracellular domain; also called FcgRIIb; 2b; not shown: His tag at the C terminus
T1 sequence (looked up): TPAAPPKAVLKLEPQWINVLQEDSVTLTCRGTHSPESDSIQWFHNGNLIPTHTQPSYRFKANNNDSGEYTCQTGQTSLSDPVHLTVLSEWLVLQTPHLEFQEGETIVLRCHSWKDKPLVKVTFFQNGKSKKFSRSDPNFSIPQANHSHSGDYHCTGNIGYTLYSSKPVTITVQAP

[2] = molecular target: T2, FcγRIIa R (human, UniProt P12318 34-217); assay: SPR, relative to GpH7-A5/GpH7-B3/GpL16-k0
T2 construct: extracellular domain; also called FcgRIIa R type; 2aR; not shown: His tag at the C terminus
T2 sequence (looked up): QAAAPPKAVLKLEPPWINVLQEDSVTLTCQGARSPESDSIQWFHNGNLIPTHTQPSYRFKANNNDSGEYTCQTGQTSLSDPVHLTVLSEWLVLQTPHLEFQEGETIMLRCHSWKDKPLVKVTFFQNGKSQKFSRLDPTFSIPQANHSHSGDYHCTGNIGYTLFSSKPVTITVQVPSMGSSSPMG

[3] = molecular target: T3, FcγRIIa H (FcγRIIa type H, His at position 131), extracellular domain with C-terminal His tag (human, UniProt P12318 34-217); assay: SPR Biacore, relative binding, GpH7-B3/GpL16-k0 (HoCon Ab)=100
T3 construct: extracellular domain; also called FcgRIIa H; 2aH
T3 sequence (looked up): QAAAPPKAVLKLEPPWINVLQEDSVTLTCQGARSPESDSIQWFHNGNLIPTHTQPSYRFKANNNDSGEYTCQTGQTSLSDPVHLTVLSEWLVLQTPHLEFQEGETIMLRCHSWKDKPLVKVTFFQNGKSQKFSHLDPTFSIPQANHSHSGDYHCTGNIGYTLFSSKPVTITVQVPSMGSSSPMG
Method: Analysis of interaction between objective antibody and the FcγR was carried out using Biacore T100 (GE Healthcare). HBS-EP+ (GE Healthcare) was used as the running buffer, and the measurement temperature was set to 25° C. Chips produced by immobilizing the antigen peptide by the amine coupling method to a Series S Sencor Chip CM5 (GE Healthcare), or alternatively, chips produced by allowing preliminarily biotinylated antigen peptides to interact with and immobilize onto a Series S Sensor Chip SA (certified) (GE Healthcare) were used. Antibodies of interest were captured onto an antigen peptide-immobilized chip, and allowed to interact to each FcγR diluted with running buffer. To regenerate and repeatedly use the chip, the antibodies captured on the chip were washed off by reacting 10 mM glycine-HCl, pH 1.5.

[4] = molecular target: T4, FcγRIIb (human, UniProt P31994 43-217); assay: SPR (Biacore), antibody captured, FcγR analyte; binding relative to GpH7-A5/GpH7-B3/GpL16-k0 = 100
T4 construct: extracellular domain; also called FcgRIIb; 2b
T4 sequence (looked up): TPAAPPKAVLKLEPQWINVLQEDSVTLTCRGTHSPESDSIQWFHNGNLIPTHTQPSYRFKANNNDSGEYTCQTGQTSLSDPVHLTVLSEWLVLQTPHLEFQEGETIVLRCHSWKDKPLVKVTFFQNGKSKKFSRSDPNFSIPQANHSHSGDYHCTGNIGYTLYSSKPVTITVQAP

[5] = molecular target: T5, FcγRIIa H (human, UniProt P12318 34-217); assay: as above
T5 construct: extracellular domain; also called FcgRIIa H; FcγRIIa type H
T5 sequence (looked up): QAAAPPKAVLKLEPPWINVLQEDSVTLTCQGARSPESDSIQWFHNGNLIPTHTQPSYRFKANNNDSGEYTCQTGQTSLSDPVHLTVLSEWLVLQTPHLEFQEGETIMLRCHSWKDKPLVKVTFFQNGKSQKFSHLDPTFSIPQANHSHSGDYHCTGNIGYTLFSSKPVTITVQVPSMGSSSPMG

B1: GpH7-A5/GpH7-B3 variant A327_01G/GpL16-k0 (antibody, human IgG1, kappa)
heavy 1: not shown
heavy 2: not shown
light: DIVMTQSPLSLPVTPGEPASISCQASESLVHSNRNTYLHWYLQKPGQSPQLLIYKVSNRFSGVPDRFSGSGSGTDFTLKISRVEAEDVGVYYCSQNTHVPPTFGQGTKVEIERTVAAPSVFIFPPSDEQLKSGTASVVCLLNNFYPREAKVQWKVDNALQSGNSQESVTEQDSKDSTYSLSSTLTLSKADYEKHKVYACEVTHQGLSSPVTKSFNRGEC
notes: Heterodimerized anti-glypican-3 IgG1; mutation in the GpH7-B3 chain only; also called He Ab
[1]
  He/Con_2b: 116 control = 100
[2]
  He/Con_2aR: 98.2 control = 100

B2: GpH7-B3 variant I332_02A/GpL16-k0 (antibody, human IgG1, kappa)
heavy: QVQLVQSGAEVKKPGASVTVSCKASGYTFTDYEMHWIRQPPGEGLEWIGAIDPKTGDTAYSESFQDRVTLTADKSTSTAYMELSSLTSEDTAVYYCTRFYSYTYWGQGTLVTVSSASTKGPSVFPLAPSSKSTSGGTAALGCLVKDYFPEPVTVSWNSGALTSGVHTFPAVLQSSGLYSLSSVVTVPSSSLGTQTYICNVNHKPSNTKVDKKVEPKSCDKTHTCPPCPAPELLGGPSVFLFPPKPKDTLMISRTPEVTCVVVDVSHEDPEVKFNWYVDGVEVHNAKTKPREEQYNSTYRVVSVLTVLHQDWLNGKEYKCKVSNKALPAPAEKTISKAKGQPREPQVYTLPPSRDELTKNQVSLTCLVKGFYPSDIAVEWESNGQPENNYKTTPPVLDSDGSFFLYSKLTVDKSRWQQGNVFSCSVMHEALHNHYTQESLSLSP
light: DIVMTQSPLSLPVTPGEPASISCQASESLVHSNRNTYLHWYLQKPGQSPQLLIYKVSNRFSGVPDRFSGSGSGTDFTLKISRVEAEDVGVYYCSQNTHVPPTFGQGTKVEIERTVAAPSVFIFPPSDEQLKSGTASVVCLLNNFYPREAKVQWKVDNALQSGNSQESVTEQDSKDSTYSLSSTLTLSKADYEKHKVYACEVTHQGLSSPVTKSFNRGEC
notes: both H chains mutated; also called Ho Ab
[3]
  Ho/Con_2aH: 119 % of control

B3: GpH7-A5/GpH7-B3 variant Y300_19Q/GpL16-k0 (antibody, human IgG1, kappa)
heavy 1: not shown
heavy 2: not shown
light: DIVMTQSPLSLPVTPGEPASISCQASESLVHSNRNTYLHWYLQKPGQSPQLLIYKVSNRFSGVPDRFSGSGSGTDFTLKISRVEAEDVGVYYCSQNTHVPPTFGQGTKVEIERTVAAPSVFIFPPSDEQLKSGTASVVCLLNNFYPREAKVQWKVDNALQSGNSQESVTEQDSKDSTYSLSSTLTLSKADYEKHKVYACEVTHQGLSSPVTKSFNRGEC
notes: Heterodimerized antibody, alteration in one H chain only; also called He Ab Y300Q
[4]
  He/Con_2b: 108 % of control
[5]
  He/Con_2aH: 96.1 % of control

B4: GpH7-A5/GpH7-B3 variant Y300_19Q/GpL16-k0 (antibody, human IgG1, kappa)
heavy 1: not shown
heavy 2: not shown
light: DIVMTQSPLSLPVTPGEPASISCQASESLVHSNRNTYLHWYLQKPGQSPQLLIYKVSNRFSGVPDRFSGSGSGTDFTLKISRVEAEDVGVYYCSQNTHVPPTFGQGTKVEIERTVAAPSVFIFPPSDEQLKSGTASVVCLLNNFYPREAKVQWKVDNALQSGNSQESVTEQDSKDSTYSLSSTLTLSKADYEKHKVYACEVTHQGLSSPVTKSFNRGEC
notes: as for B1
[1]
  He/Con_2b: 108 control = 100
[2]
  He/Con_2aR: 99.7 control = 100

B5: GpH7-B3 variant G236_07I/GpL16-k0 (antibody, human IgG1, kappa)
heavy: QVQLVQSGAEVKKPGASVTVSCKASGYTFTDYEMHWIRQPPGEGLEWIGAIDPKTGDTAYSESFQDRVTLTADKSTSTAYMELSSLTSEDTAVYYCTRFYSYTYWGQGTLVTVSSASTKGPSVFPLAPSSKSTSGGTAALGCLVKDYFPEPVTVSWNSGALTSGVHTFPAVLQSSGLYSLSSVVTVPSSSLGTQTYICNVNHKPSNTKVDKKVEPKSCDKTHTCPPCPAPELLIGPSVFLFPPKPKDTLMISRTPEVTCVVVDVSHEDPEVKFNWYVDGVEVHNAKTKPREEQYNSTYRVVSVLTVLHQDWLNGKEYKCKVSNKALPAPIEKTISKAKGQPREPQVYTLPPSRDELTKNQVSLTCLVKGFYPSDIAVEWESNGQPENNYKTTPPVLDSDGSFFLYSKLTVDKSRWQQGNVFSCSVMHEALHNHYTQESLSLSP
light: DIVMTQSPLSLPVTPGEPASISCQASESLVHSNRNTYLHWYLQKPGQSPQLLIYKVSNRFSGVPDRFSGSGSGTDFTLKISRVEAEDVGVYYCSQNTHVPPTFGQGTKVEIERTVAAPSVFIFPPSDEQLKSGTASVVCLLNNFYPREAKVQWKVDNALQSGNSQESVTEQDSKDSTYSLSSTLTLSKADYEKHKVYACEVTHQGLSSPVTKSFNRGEC
notes: as for B2
[3]
  Ho/Con_2aH: 101 % of control

B6: GpH7-B3 variant G236_10E/GpL16-k0 (antibody, human IgG1, kappa)
heavy: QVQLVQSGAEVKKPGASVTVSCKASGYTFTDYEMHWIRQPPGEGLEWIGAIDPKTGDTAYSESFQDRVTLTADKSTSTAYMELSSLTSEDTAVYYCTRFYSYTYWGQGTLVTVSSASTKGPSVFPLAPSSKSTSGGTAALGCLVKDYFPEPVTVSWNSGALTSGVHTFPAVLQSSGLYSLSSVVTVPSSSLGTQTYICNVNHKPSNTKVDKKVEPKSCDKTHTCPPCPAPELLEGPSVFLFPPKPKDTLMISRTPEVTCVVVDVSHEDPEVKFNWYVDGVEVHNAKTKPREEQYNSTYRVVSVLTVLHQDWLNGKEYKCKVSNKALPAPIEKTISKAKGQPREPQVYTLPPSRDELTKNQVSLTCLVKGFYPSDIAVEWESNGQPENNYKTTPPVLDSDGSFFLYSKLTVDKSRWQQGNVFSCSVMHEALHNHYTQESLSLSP
light: DIVMTQSPLSLPVTPGEPASISCQASESLVHSNRNTYLHWYLQKPGQSPQLLIYKVSNRFSGVPDRFSGSGSGTDFTLKISRVEAEDVGVYYCSQNTHVPPTFGQGTKVEIERTVAAPSVFIFPPSDEQLKSGTASVVCLLNNFYPREAKVQWKVDNALQSGNSQESVTEQDSKDSTYSLSSTLTLSKADYEKHKVYACEVTHQGLSSPVTKSFNRGEC
notes: as for B2
[3]
  Ho/Con_2aH: 122 % of control

B7: GpH7-B3 variant G236_03V/GpL16-k0 (antibody, human IgG1, kappa)
heavy: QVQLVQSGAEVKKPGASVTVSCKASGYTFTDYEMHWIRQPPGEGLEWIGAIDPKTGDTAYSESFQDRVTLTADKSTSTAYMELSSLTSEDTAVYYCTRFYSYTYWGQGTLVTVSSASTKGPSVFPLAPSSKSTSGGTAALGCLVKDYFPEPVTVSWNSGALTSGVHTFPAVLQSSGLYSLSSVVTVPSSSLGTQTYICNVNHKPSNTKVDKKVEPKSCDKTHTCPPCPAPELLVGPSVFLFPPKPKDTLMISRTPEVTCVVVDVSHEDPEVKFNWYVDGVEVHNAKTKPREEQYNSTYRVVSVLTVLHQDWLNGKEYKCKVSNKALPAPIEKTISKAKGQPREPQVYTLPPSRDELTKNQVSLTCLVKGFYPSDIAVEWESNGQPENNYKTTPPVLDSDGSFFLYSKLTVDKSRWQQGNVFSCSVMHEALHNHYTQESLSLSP
light: DIVMTQSPLSLPVTPGEPASISCQASESLVHSNRNTYLHWYLQKPGQSPQLLIYKVSNRFSGVPDRFSGSGSGTDFTLKISRVEAEDVGVYYCSQNTHVPPTFGQGTKVEIERTVAAPSVFIFPPSDEQLKSGTASVVCLLNNFYPREAKVQWKVDNALQSGNSQESVTEQDSKDSTYSLSSTLTLSKADYEKHKVYACEVTHQGLSSPVTKSFNRGEC
notes: as for B2
[3]
  Ho/Con_2aH: 111 % of control

B8: GpH7-A5/GpH7-B3 variant V266_06M/GpL16-k0 (antibody, human IgG1, kappa)
heavy 1: not shown
heavy 2: not shown
light: DIVMTQSPLSLPVTPGEPASISCQASESLVHSNRNTYLHWYLQKPGQSPQLLIYKVSNRFSGVPDRFSGSGSGTDFTLKISRVEAEDVGVYYCSQNTHVPPTFGQGTKVEIERTVAAPSVFIFPPSDEQLKSGTASVVCLLNNFYPREAKVQWKVDNALQSGNSQESVTEQDSKDSTYSLSSTLTLSKADYEKHKVYACEVTHQGLSSPVTKSFNRGEC
notes: Heterodimerized antibody, alteration in one H chain only; also called He Ab V266M
[4]
  He/Con_2b: 251 % of control
[5]
  He/Con_2aH: 83.9 % of control
